Experimental data reported in US20240400644A1 (ACROIMMUNE GUANGZHOU BIOTECH, published 2024).

T1: Siglec10-mIgG2aFc fusion protein (human, UniProt Q96LC7 17-546, limits assumed)
T1 construct: Bought, HEK293 cell derived; also called human Siglec-10; AcroBiosystems SIO-H525b; not shown: mouse IgG2a Fc of the bought protein
T1 sequence (looked up): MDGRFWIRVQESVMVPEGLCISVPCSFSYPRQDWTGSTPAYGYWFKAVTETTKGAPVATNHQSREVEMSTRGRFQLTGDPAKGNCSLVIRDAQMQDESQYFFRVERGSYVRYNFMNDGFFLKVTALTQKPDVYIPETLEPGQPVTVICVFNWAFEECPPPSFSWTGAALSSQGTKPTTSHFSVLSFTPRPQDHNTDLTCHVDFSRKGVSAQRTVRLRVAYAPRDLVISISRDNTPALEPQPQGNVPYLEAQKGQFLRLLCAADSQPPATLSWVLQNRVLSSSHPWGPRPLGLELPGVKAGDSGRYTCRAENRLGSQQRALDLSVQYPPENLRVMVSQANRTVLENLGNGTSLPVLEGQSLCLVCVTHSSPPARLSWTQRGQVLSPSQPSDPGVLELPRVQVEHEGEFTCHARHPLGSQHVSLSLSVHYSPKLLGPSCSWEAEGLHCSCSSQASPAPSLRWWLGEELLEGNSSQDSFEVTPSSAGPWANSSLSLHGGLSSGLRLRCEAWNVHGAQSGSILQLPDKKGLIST

T2: HMGB1-His tag protein (human, UniProt P09429 1-215, limits assumed)
T2 construct: Bought, HEK293 cell derived; also called human HMGB1; HMGB1-His protein; not shown: His tag
T2 sequence (looked up): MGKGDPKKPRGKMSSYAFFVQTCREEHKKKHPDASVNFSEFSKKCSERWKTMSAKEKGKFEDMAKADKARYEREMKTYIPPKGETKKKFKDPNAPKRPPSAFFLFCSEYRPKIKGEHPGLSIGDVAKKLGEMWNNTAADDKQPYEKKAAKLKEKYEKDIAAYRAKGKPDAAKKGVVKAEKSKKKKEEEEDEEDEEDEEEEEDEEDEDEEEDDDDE


Assays:
[1] = molecular target: CD24Fc (HEK293 cell derived) (UniProt P25063); assay: direct ELISA, antigen coated at 10 µg/ml, mAb titrated
[2] = molecular target: T1, Siglec10-mIgG2aFc fusion protein; assay: ELISA, Siglec10-mIgG2aFc coated at 0.2 µg/mL, fusion protein titrated
Experimental: 96-well plates were coated (100 μL per well) with 0.2 μg/mL of HEK293 cell derived Siglec10-mlgG2aFc fusion protein (AcroBiosystems, SIO-H525b) at 4° C. overnight. After blocking with SuperBlock (Thermo, 37515) at room temperature for 1 hour, 100 μL of 2-fold serial dilutions of AI-071 or CD24Fc protein (all starting at 1.5 mg/mL) were added. The bound AI-071 or CD24Fc protein was then detected by HRP-labeled goat anti-human IgG-Fc antibody (1:5000, Invitrogen, A18829) followed by the addition of tetramethylbenzidine (TMB) substrates. The EC50 values of the binding are shown in the underneath table.
To probe the interaction of AI-071 protein with the members of Siglec family such as Siglec10, an ELSIA assay was developed. In-brief, 96-well plates were coated (100 μL per well) with 0.2 μg/mL of HEK293 cell derived Siglec10-mlgG2aFc fusion protein (AcroBiosystems, SIO-H525b) at 4° C. overnight. After washing and blocking with SuperBlock (Thermo, 37515) at room temperature for 1 hour, 100 μL of 2-fold serial dilutions of either AI-71 or CD24Fc (all starting at 1.5 mg/ml) were added. The bound AI-071 or CD24Fc protein was then detected by HRP-labeled goat anti-human IgG-Fc antibody (1:5000, Invitrogen, A18829) followed by the addition of Tetramethylbenzidin (TMB) substrates. […] The OD values at a wavelength of 450 nm (OD 450 nm) in each well were then measured.

HMGB1-His tag protein = molecular target: T2, HMGB1-His tag protein; assay: ELISA, HMGB1-His coated at 0.1 µg/mL, fusion protein titrated
Experimental: 96-well plates were coated (100 μL per well) with 0.1 μg/mL HEK293 cell derived HMGB1-His tag protein (AcroBiosystems, HM1-H5220) at 4° C. overnight. After blocking with SuperBlock (Thermo, 37515) at room temperature for 1 hour, 100 μL of 2-fold serial dilutions of AI-071 or CD24Fc (all starting at 1.5 mg/mL, dilution buffer: PBST-1% BSA solution containing 1 mM MgCl2 and 1 mM CaCl2) were added. The bound AI-071 or CD24Fc protein was then detected by adding HRP-labeled goat anti-human IgG-Fc antibody (1:1000, Invitrogen, A18829), followed by the addition of tetramethylbenzidin (TMB) substrates. The EC50 values of the binding are shown in the underneath table. […] Recombinant HMGB1-His protein sample was incubated with AI-071, human IgG-Fc, or none for 5 min, the mixture was then incubated with protein A-conjugated beads to capture (or pull-down) the bound proteins. The captured proteins were then separated in a SDS-PAGE gel and visualized by Coomassie Brilliant Blue dye staining. […] As indicated on the top of each gel, lane 1 represents the sample containing HMGB1 only, lane 2 represents the sample containing HMGB1 and human IgG-Fc, and lane 3 represents the sample containing HMGB1 and AI-071, lane M is the protein molecule weight marker sample. […]

| Molecule | EC50 [1] [nM] | EC50 [2] [nM] | EC50 (HMGB1-His tag protein) [µM] |
| --- | --- | --- | --- |
| SN3 mouse anti-CD24 mAb (antibody) | 4.67 | – | – |
| SETTTGTSSNSSQSTSNSGLAPNPTNATTKAAG (Fc fusion, UniProt P25063 27-59, looked up, not shown: Fc part) [CD24Fc (producing cell not stated)] | – | 2850 | 51 |
